These results are taken from PMC7708043 (Nucleic Acids Research, 2020).

Holding throughout (assay): FRET or BRET
On the technique in general: Bioluminescence resonance energy transfer reports proximity on the nanometre scale.

Test [1] concerns the target T1, mEGFP-PARP1 (UniProt P09874 1-1014).
Test [2] concerns the target T1, mEGFP-PARP1. The source holds these as a separate data set.
Test [3] has as its target T2, mEGFP-ALC1 (UniProt Q86WJ1 1-897).
T2 sequence (looked up): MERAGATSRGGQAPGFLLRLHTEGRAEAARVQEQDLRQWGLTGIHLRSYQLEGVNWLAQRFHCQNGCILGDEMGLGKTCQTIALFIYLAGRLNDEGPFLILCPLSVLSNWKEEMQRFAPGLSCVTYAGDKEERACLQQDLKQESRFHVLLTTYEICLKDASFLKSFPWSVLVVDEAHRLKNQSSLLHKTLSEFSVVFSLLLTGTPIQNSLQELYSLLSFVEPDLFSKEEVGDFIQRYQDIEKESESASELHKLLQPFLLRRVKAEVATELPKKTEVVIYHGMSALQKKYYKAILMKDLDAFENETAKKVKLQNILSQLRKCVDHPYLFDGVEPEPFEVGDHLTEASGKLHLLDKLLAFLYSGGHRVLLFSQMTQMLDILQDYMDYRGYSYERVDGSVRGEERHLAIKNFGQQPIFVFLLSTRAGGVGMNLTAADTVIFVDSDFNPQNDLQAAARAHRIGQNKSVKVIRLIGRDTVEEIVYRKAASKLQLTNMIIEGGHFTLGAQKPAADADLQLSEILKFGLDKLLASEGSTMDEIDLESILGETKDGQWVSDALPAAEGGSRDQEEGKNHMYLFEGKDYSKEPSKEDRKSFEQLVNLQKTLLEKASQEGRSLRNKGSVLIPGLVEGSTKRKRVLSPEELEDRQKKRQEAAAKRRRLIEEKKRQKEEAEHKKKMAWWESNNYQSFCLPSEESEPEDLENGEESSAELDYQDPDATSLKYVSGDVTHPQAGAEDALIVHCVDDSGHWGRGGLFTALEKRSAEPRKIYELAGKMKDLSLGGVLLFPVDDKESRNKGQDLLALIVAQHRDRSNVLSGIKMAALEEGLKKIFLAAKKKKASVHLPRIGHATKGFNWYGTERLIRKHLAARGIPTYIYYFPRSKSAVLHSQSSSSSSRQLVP

T1 sequence (P09874 whole entry): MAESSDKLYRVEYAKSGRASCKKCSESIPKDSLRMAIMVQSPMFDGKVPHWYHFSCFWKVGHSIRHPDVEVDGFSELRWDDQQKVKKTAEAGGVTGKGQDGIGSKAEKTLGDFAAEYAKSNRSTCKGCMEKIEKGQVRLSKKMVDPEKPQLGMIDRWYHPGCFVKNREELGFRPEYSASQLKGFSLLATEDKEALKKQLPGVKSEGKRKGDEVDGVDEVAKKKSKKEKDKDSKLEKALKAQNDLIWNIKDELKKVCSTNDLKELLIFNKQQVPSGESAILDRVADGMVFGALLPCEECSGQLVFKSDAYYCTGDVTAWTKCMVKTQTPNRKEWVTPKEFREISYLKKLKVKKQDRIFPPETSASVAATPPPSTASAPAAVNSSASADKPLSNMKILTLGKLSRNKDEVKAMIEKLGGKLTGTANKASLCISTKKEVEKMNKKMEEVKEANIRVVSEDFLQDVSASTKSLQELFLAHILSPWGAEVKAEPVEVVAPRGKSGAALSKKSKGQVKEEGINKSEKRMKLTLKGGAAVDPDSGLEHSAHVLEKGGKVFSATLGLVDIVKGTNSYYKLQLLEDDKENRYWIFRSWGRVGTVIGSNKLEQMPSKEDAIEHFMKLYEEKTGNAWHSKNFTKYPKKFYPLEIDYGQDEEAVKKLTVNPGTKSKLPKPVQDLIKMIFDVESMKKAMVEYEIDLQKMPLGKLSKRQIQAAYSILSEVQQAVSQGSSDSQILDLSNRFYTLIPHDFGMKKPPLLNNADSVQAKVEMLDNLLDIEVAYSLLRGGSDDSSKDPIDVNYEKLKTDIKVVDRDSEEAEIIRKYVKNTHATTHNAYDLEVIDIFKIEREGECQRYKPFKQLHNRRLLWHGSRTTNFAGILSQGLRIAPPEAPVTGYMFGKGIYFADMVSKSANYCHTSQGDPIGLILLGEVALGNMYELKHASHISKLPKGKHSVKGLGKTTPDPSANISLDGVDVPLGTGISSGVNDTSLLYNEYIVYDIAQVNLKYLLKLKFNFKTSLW

B1: mCherry-ALC1 (natural protein, UniProt Q86WJ1 1-897, looked up)
chain: MERAGATSRGGQAPGFLLRLHTEGRAEAARVQEQDLRQWGLTGIHLRSYQLEGVNWLAQRFHCQNGCILGDEMGLGKTCQTIALFIYLAGRLNDEGPFLILCPLSVLSNWKEEMQRFAPGLSCVTYAGDKEERACLQQDLKQESRFHVLLTTYEICLKDASFLKSFPWSVLVVDEAHRLKNQSSLLHKTLSEFSVVFSLLLTGTPIQNSLQELYSLLSFVEPDLFSKEEVGDFIQRYQDIEKESESASELHKLLQPFLLRRVKAEVATELPKKTEVVIYHGMSALQKKYYKAILMKDLDAFENETAKKVKLQNILSQLRKCVDHPYLFDGVEPEPFEVGDHLTEASGKLHLLDKLLAFLYSGGHRVLLFSQMTQMLDILQDYMDYRGYSYERVDGSVRGEERHLAIKNFGQQPIFVFLLSTRAGGVGMNLTAADTVIFVDSDFNPQNDLQAAARAHRIGQNKSVKVIRLIGRDTVEEIVYRKAASKLQLTNMIIEGGHFTLGAQKPAADADLQLSEILKFGLDKLLASEGSTMDEIDLESILGETKDGQWVSDALPAAEGGSRDQEEGKNHMYLFEGKDYSKEPSKEDRKSFEQLVNLQKTLLEKASQEGRSLRNKGSVLIPGLVEGSTKRKRVLSPEELEDRQKKRQEAAAKRRRLIEEKKRQKEEAEHKKKMAWWESNNYQSFCLPSEESEPEDLENGEESSAELDYQDPDATSLKYVSGDVTHPQAGAEDALIVHCVDDSGHWGRGGLFTALEKRSAEPRKIYELAGKMKDLSLGGVLLFPVDDKESRNKGQDLLALIVAQHRDRSNVLSGIKMAALEEGLKKIFLAAKKKKASVHLPRIGHATKGFNWYGTERLIRKHLAARGIPTYIYYFPRSKSAVLHSQSSSSSSRQLVP
As for B1, the “median FRET efficiency (at the damage site)” value in test [1] worked out at 5.5%. Also, in test [2], the “median FRET efficiency (1 min after damage)” value was determined as 5.8% and the “median FRET efficiency (5 min after damage)” value was 3.8%.

B2: mCherry-TRIM33 (natural protein, UniProt Q9UPN9 1-1127, looked up)
chain: MAENKGGGEAESGGGGSGSAPVTAGAAGPAAQEAEPPLTAVLVEEEEEEGGRAGAEGGAAGPDDGGVAAASSGSAQAASSPAASVGTGVAGGAVSTPAPAPASAPAPGPSAGPPPGPPASLLDTCAVCQQSLQSRREAEPKLLPCLHSFCLRCLPEPERQLSVPIPGGSNGDIQQVGVIRCPVCRQECRQIDLVDNYFVKDTSEAPSSSDEKSEQVCTSCEDNASAVGFCVECGEWLCKTCIEAHQRVKFTKDHLIRKKEDVSESVGASGQRPVFCPVHKQEQLKLFCETCDRLTCRDCQLLEHKEHRYQFLEEAFQNQKGAIENLLAKLLEKKNYVHFAATQVQNRIKEVNETNKRVEQEIKVAIFTLINEINKKGKSLLQQLENVTKERQMKLLQQQNDITGLSRQVKHVMNFTNWAIASGSSTALLYSKRLITFQLRHILKARCDPVPAANGAIRFHCDPTFWAKNVVNLGNLVIESKPAPGYTPNVVVGQVPPGTNHISKTPGQINLAQLRLQHMQQQVYAQKHQQLQQMRMQQPPAPVPTTTTTTQQHPRQAAPQMLQQQPPRLISVQTMQRGNMNCGAFQAHQMRLAQNAARIPGIPRHSGPQYSMMQPHLQRQHSNPGHAGPFPVVSVHNTTINPTSPTTATMANANRGPTSPSVTAIELIPSVTNPENLPSLPDIPPIQLEDAGSSSLDNLLSRYISGSHLPPQPTSTMNPSPGPSALSPGSSGLSNSHTPVRPPSTSSTGSRGSCGSSGRTAEKTSLSFKSDQVKVKQEPGTEDEICSFSGGVKQEKTEDGRRSACMLSSPESSLTPPLSTNLHLESELDALASLENHVKIEPADMNESCKQSGLSSLVNGKSPIRSLMHRSARIGGDGNNKDDDPNEDWCAVCQNGGDLLCCEKCPKVFHLTCHVPTLLSFPSGDWICTFCRDIGKPEVEYDCDNLQHSKKGKTAQGLSPVDQRKCERLLLYLYCHELSIEFQEPVPASIPNYYKIIKKPMDLSTVKKKLQKKHSQHYQIPDDFVADVRLIFKNCERFNEMMKVVQVYADTQEINLKADSEVAQAGKAVALYFEDKLTEIYSDRTFAPLPEFEQEEDDGEVTEDSDEDFIQPRRKRLKSDERPVHIK
As to B2, the “median FRET efficiency (at the damage site)” value in test [3] is 2.2%.
